Reference: patent publication US20240270866A1 (Alector, published 2024)

T1: mouse SIRPA overexpressed on CHO cells (mouse, UniProt P97797 32-513)
T1 construct: also called CHO-muSIRPA
T1 sequence: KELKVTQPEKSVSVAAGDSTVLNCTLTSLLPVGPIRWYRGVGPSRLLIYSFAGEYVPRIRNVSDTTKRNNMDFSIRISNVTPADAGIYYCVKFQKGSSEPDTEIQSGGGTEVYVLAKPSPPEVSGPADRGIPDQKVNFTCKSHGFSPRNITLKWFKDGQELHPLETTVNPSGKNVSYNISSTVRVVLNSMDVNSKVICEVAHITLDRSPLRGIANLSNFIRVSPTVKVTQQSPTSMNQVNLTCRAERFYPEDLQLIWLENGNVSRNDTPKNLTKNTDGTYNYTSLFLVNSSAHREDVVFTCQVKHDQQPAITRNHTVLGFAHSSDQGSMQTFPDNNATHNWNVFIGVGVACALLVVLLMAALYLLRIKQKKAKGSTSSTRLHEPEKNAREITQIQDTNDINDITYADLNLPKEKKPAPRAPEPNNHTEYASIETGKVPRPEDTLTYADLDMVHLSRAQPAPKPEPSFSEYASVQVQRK

T2: Mouse SIRPA D1 Fc (mouse, UniProt P97797 32-150, limits assumed)
T2 sequence: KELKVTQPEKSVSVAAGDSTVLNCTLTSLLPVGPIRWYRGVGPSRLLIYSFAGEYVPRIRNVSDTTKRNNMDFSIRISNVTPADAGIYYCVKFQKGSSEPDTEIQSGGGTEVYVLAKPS


What was measured:
[1] = target: T1, mouse SIRPA overexpressed on CHO cells; assay: flow, CHO-muSIRPA;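 on relative MFI: antibody binding measured by flow cytometry: cells stained with 1 ug/ml test antibody for 1 h on ice, detected with PE-labelled secondary antibody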
[2] = target: T1, mouse SIRPA overexpressed on CHO cells; assay: flow, CHO-muSIRPA; remark: listed apart in the source;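 on relative MFI: antibody binding measured by flow cytometry: cells stained with 1 ug/ml test antibody for 1 h on ice, detected with PE-labelled secondary antibody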
[3] = target: T3, Human SIRPA D1 Fc (human, UniProt P78324 32-137); assay: ForteBio IgG avid;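 further: antibody IgG captured on AHQ biosensors, then 100 nM Fc-fused SIRP antigen applied for 3 min, followed by 3 min buffer dissociation, kinetics fitted to a 1:1 model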
T3 construct: not shown: human IgG1 Fc

[4] = target: T2, Mouse SIRPA D1 Fc; assay: ForteBio IgG avid;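 further: antibody IgG captured on AHQ biosensors, then 100 nM Fc-fused SIRP antigen applied for 3 min, followed by 3 min buffer dissociation, kinetics fitted to a 1:1 model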
Description: Briefly, ForteBio affinity measurements were performed by loading IgGs on-line onto AHQ sensors. Sensors were equilibrated off-line in assay buffer for 30 min and then monitored on-line for 60 seconds for baseline establishment. For avid binding measurement, sensors with loaded IgGs were exposed to 100 nM antigen (human SIRPA or SIRPβ1 Fc fusion) for 3 min, afterwards they were transferred to assay buffer for 3 min for off-rate measurement. Additional avid binding was determined by loading biotinylated SIRPA monomer on SA sensors and exposure to 100 nM IgG in solution. Monovalent binding measurements were obtained by loading human SIRPA or SIRPβ1 Fc fusion antigens to AHQ sensor and followed by exposure to 100 nM anti-SIRPA antibody Fab. Additional monovalent measurements were made by loading biotinylated human SIRPA or SIRPβ1 monomer to SA sensor followed by exposure to 100 nM Fab in solution. Kinetics data were fit using a 1:1 binding model in the data analysis software provided by ForteBio.

[5] = target: T4, human SIRPA Fc fusion antigen (human, UniProt P78324 31-373); assay: ForteBio IgG avid;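 further: ForteBio sensor-based avid binding of anti-SIRPA antibodies in IgG format, with the binding partner in solution at 100 nM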
T4 construct: heterologous signal peptide; not shown: human IgG1 Fc

[6] = target: T5, human SIRPβ1 Fc fusion antigen (human, UniProt O00241 30-371); assay: ForteBio IgG avid;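 further: ForteBio sensor-based avid binding of anti-SIRPA antibodies in IgG format, with the binding partner in solution at 100 nM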
T5 construct: not shown: human IgG1 Fc

[7] = target: T4, human SIRPA Fc fusion antigen; assay: ForteBio Fab monovalent
Description: Briefly, ForteBio affinity measurements were performed by loading immunoglobulins (IgGs) on-line onto AHQ sensors. Sensors were equilibrated off-line in assay buffer for 30 min and then monitored on-line for 60 seconds for baseline establishment. For avid binding measurement, sensors with loaded IgGs were exposed to 100 nM antigen (human SIRPA or SIRPβ1 Fc fusion) for 3 min, afterwards they were transferred to assay buffer for 3 min for off-rate measurement. […] Monovalent binding measurements were obtained by loading human SIRPA Fc fusion antigens to AHQ sensor and followed by exposure to 100 nM anti-SIRPA antibody Fab.
Additional monovalent measurements were made by loading biotinylated human SIRPA monomer to SA sensor followed by exposure to 100 nM Fab in solution. Kinetics data were fit using a 1:1 binding model in the data analysis software provided by ForteBio.

T5 sequence (O00241 30-371 limits assumed): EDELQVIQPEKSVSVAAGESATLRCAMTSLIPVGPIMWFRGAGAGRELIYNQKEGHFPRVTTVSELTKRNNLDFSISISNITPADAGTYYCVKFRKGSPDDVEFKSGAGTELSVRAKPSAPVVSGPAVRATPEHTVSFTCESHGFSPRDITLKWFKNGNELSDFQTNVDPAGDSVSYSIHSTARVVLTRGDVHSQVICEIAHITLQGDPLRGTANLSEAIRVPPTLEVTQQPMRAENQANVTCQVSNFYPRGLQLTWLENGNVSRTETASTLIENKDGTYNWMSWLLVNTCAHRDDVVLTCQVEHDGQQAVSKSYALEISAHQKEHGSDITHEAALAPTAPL

| Kd [5] [nM] | binding result [6] | Binder | also measured |
| --- | --- | --- | --- |
| – | – | SA-19 (antibody, V domains shown, IgG; also called SA-19 (parental)) VH: QVQLVESGGGVVQPGRSLRLSCAASGFTFSSYGMHWVRQAPGKGLEWVAVISYDGSNKYYADSVKGRFTISRDNSKNTLYLQMNSLRAEDTAVYYCARDLTKYTLGFAFDIWGQGTMVTVSS VL: not shown | relative MFI [1]: 0.601 fold over background; binding result [2]: no binding (tested: 1 ug/ml); binding result [3]: binds; binding result [4]: no binding (tested: 100 nM) |
| 1.92 | – | SA-13-68 (antibody, V domains shown, IgG) VH: EVQLLESGGGLVQPGGSLRLSCAASGFTFTEYAMSWVRQAPGKRLEWVSAISGSGGSTYYADSVKGRFTISRDNSKNTLYLQMSSLRAEDTAVYYCARDNIQWGPHFYWGQGTLVTVSS VL: DIQMTQSPSSLSASVGDRVTITCRASQSISSYLNWYQQKPGKAPKLLIYAASSLQSGVPSRFSGSGSGTDFTLTISSLQPEDFATYYCQQGYIYPPTFGGGTKVEIK | Kd [6]: 3.45 nM |
| 0.566 | no binding (tested: 100 nM) | SA-56-94 (antibody, V domains shown, IgG; also called SA-94) VH: EVQLVESGGGVVQPGRSLRLSCAASGFTFSYYGMSWVRQAPGKGLEWVASIWVDGSNKYYADSVKGRFTISRDNSKNTLYLQMNSLRAEDTAVYYCAVGTETYSGPNWFDPWGQGTLVTVSS VL: DIQMTQSPSSVSASVGDRVTITCRASQGISSWLAWYQQKPGKAPKLLIYAASSLQSGVPSRFSGSGSGTDFTLTISSLQPEDFATYYCQQAIYFPITFGGGTKVEIK | – |
| – | – | SA-13-68 Fab (Fab, V domains shown, papain Fab) VH: EVQLLESGGGLVQPGGSLRLSCAASGFTFTEYAMSWVRQAPGKRLEWVSAISGSGGSTYYADSVKGRFTISRDNSKNTLYLQMSSLRAEDTAVYYCARDNIQWGPHFYWGQGTLVTVSS VL: DIQMTQSPSSLSASVGDRVTITCRASQSISSYLNWYQQKPGKAPKLLIYAASSLQSGVPSRFSGSGSGTDFTLTISSLQPEDFATYYCQQGYIYPPTFGGGTKVEIK | Kd [7]: 81.5 nM |
| – | – | SA-8-64 Fab (Fab, V domains shown, papain Fab) VH: QVQLVESGGGLVKPGGSLRLSCAASGFTFSSYSMHWVRQAPGKGLEWVSSISSSDSWIYYADSVKGRFTISRDNAKNSLYLQMNSLRAEDTAVYYCAKEPRSYWHGYGMDVWGQGTTVTVSS VL: not shown | Kd [7]: 27.7 nM |
| – | – | SA-8-62 Fab (Fab, V domains shown, papain Fab) VH: QVQLVESGGGLVKPGGSLRLSCAASGFTFSSYSMHWVRQAPGKGLEWVSSISSSDSWIYYADSVKGRFTISRDNAKNSLYLQMDSLRAEDTAVYYCAKERVDYWHGYGMDVWGQGTTVTVSS VL: not shown | Kd [7]: 8.92 nM |
| – | – | SA-8-67 Fab (Fab, V domains shown, papain Fab) VH: EVQLVESGGGLVKPGGSLRLSCAASGFTFSSYSMHWVRQAPGKGLEWVSSISSSPSHIYYADSVKGRFTISRDNAKNSLYLQMNSLRAEDTAVYYCAKEPRSYWHGYGMDVWGQGTTVTVSS VL: not shown | Kd [7]: 131 nM |
| 0.341 | no binding (tested: 100 nM) | SA-56-85 (antibody, V domains shown, IgG; also called SA-85) VH: EVQLLESGGGVVQPGRSLGLSCAASGSTFSYYGMSWVRQAPGKGLEWVASIWVDGSNKYYADSVKGRFTISRDNSKSTLYLQMNSLRAEDTAVYYCARGVETYSGPNWFDPWGQGTLVTVSS VL: DIQMTQSPSSVSASVGDRVTITCRASQGISSWLAWYQQKPGKAPKLLIYAASSLQSGVPSRFSGSGSGTDFTLTISSLQPEDFATYYCQQAIYFPITFGGGTKVENQ | – |
| 0.396 | no binding (tested: 100 nM) | SA-56-87 (antibody, V domains shown, IgG) VH: EVQLVESGGGVVQPGRSLRLSCAASGFTFSYYGMSWVRQAPGKGLEWVASIWVDGSNKYYADSVKGRFTISRDNSKNTLYLQMNSLRAEDTAVYYCAFGLETYSGPNWFDPWGQGTLVTVSS VL: DIQMTQSPSSVSASVGDRVTITCRASQGISSWLAWYQQKPGKAPKLLIYAASSLQSGVPSRFSGSGSGTDFTLTISSLQPEDFATYYCQQAIYFPITFGGGTKVEIK | – |
| 0.365 | no binding (tested: 100 nM) | SA-56-92 (antibody, V domains shown, IgG) VH: EVQLVESGGGVVQPGRSLRLSCAASGFTFSYYGMSWVRQAPGKGLEWVASIWVDGSNKYYADSVKGRFTISRDNSKNTLYLQMDSLRAEDTAVYYCATGVETYSGPNWFDPWGQGTLVTVSS VL: DIQMTQSPSSVSASVGDRVTITCRASQGISSWLAWYQQKPGKAPKLLIYAASSLQSGVPSRFSGSGSGTDFTLTISSLQPEDFATYYCQQAIYFPITFGGGTKVEIK | – |
| 0.379 | no binding (tested: 100 nM) | SA-56-88 (antibody, V domains shown, IgG) VH: EVQLVESGGGVVQPGRSLRLSCAASGFTFSYYGMSWVRQAPGKGLEWVASIWVDGSNKYYADSAKGRFTISRDNSKNTLYLQMNSLRAEDTAVYYCAEGKETYSGPNWFDPWGQGTLVTVSS VL: DIQMTQSPSSVSASVGDRVTITCRASQGISSWLAWYQQKPGKAPKLLIYAASSLQSGVPSRFSGSGSGTDFTLTISSLQPEDFATYYCQQAIYFPITFGGGTKVEIK | – |
| 0.339 | – | SA-56-86 (antibody, V domains shown, IgG) VH: QVQLVESGGGVVQPGGSLRLSCAASGFTFSYYGMSWVRQAPGKGLEWVASIWVDGSSKYYADSVKGRFTISRDNSKNTLYLQMNSLRAEDTAVYYCARGVETYSGPNWFDPWGQGTLVTVSS VL: DIQMTQSPSSVSASVGDRVTITCRASQGISSWLAWYQQKPGKAPKLLIYAASSLQSGVPSRFSGSGSGTDFTLTISSLQPEDFATYYCQQAIYFPITFGGGTKVEIK | Kd [6]: 12.4 nM |
| 0.415 | no binding (tested: 100 nM) | SA-56-89 (antibody, V domains shown, IgG; also called SA-89) VH: EVQLVESGGGVVQPGGSLRLSCAASGFTFSYYGMSWVRQAPGKGLEWVASIWVDGSNKYYADSVKGRFTVSRDNSKNTLYLQMDSLRAEDTAVYYCARGVETYSGPNWFDPWGQGTLVTVSS VL: DIQMTQSPSSVSASVGDRVTITCRASQGISSWLAWYQQKPGKAPKLLIYAASSLQSGVPSRFSGSGSGTDFTLTISSLQPEDFATYYCQQAIYFPITFGGGTKVEIK | – |
| 1.06 | no binding (tested: 100 nM) | SA-56-95 (antibody, V domains shown, IgG) VH: EVQLLESGGGVVQPGRSLRLSCAASGFTFAHYGMAWVRQAPGKGLEWVAVIWVDGSPKYYADSVKGRFTISRDNSKNTLYLQMNSLRAEDTAVYYCAVARETYSGPNWFDPWGQGTLVTVSS VL: DIQMTQSPSSVSASVGDRVTITCRASQGISSWLAWYQQKPGKAPKLLIYAASSLQSGVPSRFSGSGSGTDFTLTISSLQPEDFATYYCQQAIYFPITFGGGTKVEIK | – |
| 0.412 | no binding (tested: 100 nM) | SA-56-91 (antibody, V domains shown, IgG) VH: EVQLVESGGGVVQPGRSLRLSCAASGFTFAHYGMAWVRQAPGKGLEWVASIWVDGSNKYYADSVKGRFTISRDNSKNTLYLQMNSLRAEDTAVYYCATAVETYSGPNWFDPWGQGTLVTVSS VL: DIQMTQSPSSVSASVGDRVTITCRASQGISSWLAWYQQKPGKAPKLLIYAASSLQSGVPSRFSGSGSGTDFTLTISSLQPEDFATYYCQQAIYFPITFGGGTKVEIK | – |
| 0.378 | no binding (tested: 100 nM) | SA-56-90 (antibody, V domains shown, IgG; also called SA-90) VH: QVQLVESGGGVVQPGRSLRLSCAASGSTFSHYGMSWVRQAPGKGLEWVASIWVDGSNKYYADSVKGRFTISRDNSKNTLYLQMDSLRAEDTAVYYCARGVETYSGPNWFDPWGQGTLVTVSS VL: DIQMTQSPSSVSASVGDRVTITCRASQGISSWLAWYQQKPGKAPKLLIYAASSLQSGVPSRFSGSGSGTDFTLTISSLQPEDFATYYCQQAIYFPITFGGGTKVEIK | – |
| 0.862 | no binding (tested: 100 nM) | SA-56-93 (antibody, V domains shown, IgG) VH: EVQLLESGGGVVQPGRSLRLSCAASGFTFSYYGMSWVRQAPGKGLEWVASIWVDGSNKYYADSVKGRFTISRDNSKNALYLQMNSLRAEDTAVYYCAVSRETYSGPNWFDPWGQGTLVTVSS VL: DIQMTQSPSSVSASVGDRVTITCRASQGISSWLAWYQQKPGKAPKLLIYAASSLQSGVPSRFSGSGSGTDFTLTISSLQPEDFATYYCQQAIYFPITFGGGTKVEIK | – |
| 1.04 | no binding (tested: 100 nM) | SA-56-96 (antibody, V domains shown, IgG) VH: EVQLLESGGGVVQPGRSLRLSCAASGFTFSSYAMGWVRQAPGKGLEWVAVIWVDGSLKYYADSVKGRFTISRDNSKNTLYLQMNSLRAEDTAVYYCATGRETYSGPNWFDPWGQGTLVTVSS VL: DIQMTQSPSSVSASVGDRVTITCRASQGISSWLAWYQQKPGKAPKLLIYAASSLQSGVPSRFSGSGSGTDFTLTISSLQPEDFATYYCQQAIYFPITFGGGTKVEIK | – |
